Test results published in patent publication US20250223583A1 (BROAD INSTITUTE, published 2025).

Biological target: T1, murine CD47 (murine, UniProt Q61735 19-303)
T1 sequence (looked up): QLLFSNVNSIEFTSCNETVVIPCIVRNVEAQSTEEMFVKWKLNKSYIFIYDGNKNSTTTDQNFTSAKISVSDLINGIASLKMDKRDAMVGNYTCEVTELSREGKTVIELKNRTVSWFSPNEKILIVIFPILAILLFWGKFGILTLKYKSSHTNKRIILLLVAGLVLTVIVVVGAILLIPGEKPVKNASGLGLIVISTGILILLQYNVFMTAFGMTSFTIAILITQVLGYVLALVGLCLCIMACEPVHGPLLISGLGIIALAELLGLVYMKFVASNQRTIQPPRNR
Assay: cell-based or functional assay

B1: anti-mCD47 nanobody-ultraID (murine CD47) (other)
chain: QVQLVESGGGLVEPGGSLRLSCAASGIIFKINDMGWYRQAPGKRREWVAASTGGDEAIYRDSVKDRFTISRDAKNSVFLQMNSLKPEDTAVYYCTAVISTDRDGTEWRRYWGQGTQVTVSSGGLPETGGGGGSGGGSGGGSMFKNLIWLKEVDSTQERLKEWNVSYGTALVADRQTKGRGGPGRKWLSQEGGLYFSFLLNPKEFENLLQLPLVLGLSVSEALEEITEIPFSLKWPNDVYFQEKKVSGVLCELSKDKLIVGIGINVNQREIPEEIKDRATTLYEITGKDWDRKEVLLKVLKRISENLKKFKEK
- biotin labeling of B16 cells, fold over non-targeted ultraID at 1 nM: 10 fold
- streptavidin-PE signal on B16 cells, enzyme-based labeling relative to binding by the biotinylated nanobody construct alone: ≥ 20 fold
